Data taken from IntAct's records for PubMed 21212461.

B1: NAD-dependent protein deacetylase sirtuin-3, mitochondrial (Homo sapiens), Q9NTG7 (parent)
chain: MAFWGWRAAAALRLWGRVVERVEAGGGVGPFQACGCRLVLGGRDDVSAGLRGSHGARGEPLDPARPLQRPPRPEVPRAFRRQPRAAAPSFFFSSIKGGRRSISFSVGASSVVGSGGSSDKGKLSLQDVAELIRARACQRVVVMVGAGISTPSGIPDFRSPGSGLYSNLQQYDLPYPEAIFELPFFFHNPKPFFTLAKELYPGNYKPNVTHYFLRLLHDKGLLLRLYTQNIDGLERVSGIPASKLVEAHGTFASATCTVCQRPFPGEDIRADVMADRVPRCPVCTGVVKPDIVFFGEPLPQRFLLHVVDFPMADLLLILGTSLEVEPFASLTEAVRSSVPRLLINRDLVGPLAWHPRSRDVAQLGDVVHGVESLVELLGWTEEMRDLVQRETGKLDGPDK

Variants of: B1
Conditions: with ppif_mouse Ppif

Row | effect of a mutation on the interaction | Variant
1 | disrupting interaction | H248Y
